T1: human TNF receptor, biotinylated (human, UniProt P19438 30-211, limits assumed, biotinylated)
T1 construct: Immobilised on streptavidin-coated tubes
T1 sequence (looked up): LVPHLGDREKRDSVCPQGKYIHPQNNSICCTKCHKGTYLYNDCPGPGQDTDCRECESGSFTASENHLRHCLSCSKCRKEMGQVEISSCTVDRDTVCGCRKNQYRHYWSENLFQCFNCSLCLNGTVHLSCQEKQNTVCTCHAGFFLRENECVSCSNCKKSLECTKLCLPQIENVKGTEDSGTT

B1: HA-tagged scArc repressor expressed from pIE2aA / pIE2a^2A-derived genetic elements (other)
chain: MGSTGGAAAGSGGGSGGGHMKGMSKMPQFNLRWPREVLDLVRKVAEENGRSVNSEIYQRVMESFKKEGRIGAGGGSGGGSGGGSGGGHMKGMSKMPQFNLRWPREVLDLVRKVAEENGRSVNSEIYQRVMESFKKEGRIGAGGGSGGGSYPYDVPDYA
notes: The same protein is encoded by pIE2A, pIE2aA and pIE2a^2A (they differ in the number of operators on the DNA); also called scArc-HA; pIE2-encoded scArc-HA
B2: scArc expressed from pIE7aA, pIE7a2A, pIE7a3A or pIE7a4A (other)
chain: MGSTGGAAAKEAAAKEAAAKEAAAKELAAKEAAAKEAAAKEAAAKELAAGSGGGSGGGHMKGMSKMPQFNLRWPREVLDLVRKVAEENGRSVNSEIYQRVMESFKKEGRIGAGGGSGGGSGGGSGGGHMKGMSKMPQFNLRWPREVLDLVRKVAEENGRSVNSEIYQRVMESFKKEGRIGAGGGSGGGSYPYDVPDYA
notes: in vitro translated in the presence of 3F10 αHA mAb; also called scArc complex with DNA
B3: anti-β-galactosidase Vκ domain antibody clone E5 (other)
VL: DIQMTQSPSSLSASVGDRVTITCRASQSVSSYLNWYQQKPGKAPKLLIYLASRLQSGVPSRFSGSGSGTDFTLTISSLQPEDFATYYCQQNWWLPPTFGQGTKVEIK
notes: The Vκ single domain itself; also called Vκ(E5); Vk(E5)
B4: VH(DOM1h-10-27)-scArc fusion protein (pIE2aAVH(DOM1h-10-27)) (other)
chain: MAEVQLLESGGGLVQPGGSLRLSCAASGFTFEWYWMGWVRQAPGKGLEWVSAISGSGGSTYYADSVKGRFTISRDNSKNTLYLQMNSLRAEDAAVYYCAKVKLGGGPNFGYRGQGTLVTVSSAAGGGSGGGHMKGMSKMPQFNLRWPREVLDLVRKVAEENGRSVNSEIYQRVMESFKKEGRIGAGGGSGGGSGGGSGGGHMKGMSKMPQFNLRWPREVLDLVRKVAEENGRSVNSEIYQRVMESFKKEGRIGAGGGSGGGSYPYDVPDYA
notes: Human heavy chain VH domain antibody against human TNF receptor fused to scArc; in vitro translated, assayed as protein-DNA complex (one Arc operator), with the stabilising 3F10 mAb; also called VH(DOM1h-10-27) domain antibody fusion construct with scArc
B5: HA-tagged scArc repressor expressed from pIE3A / pIE3aA-derived genetic elements (other)
chain: MSGSGGGSGGGHMKGMSKMPQFNLRWPREVLDLVRKVAEENGRSVNSEIYQRVMESFKKEGRIGAGGGSGGGSGGGSGGGHMKGMSKMPQFNLRWPREVLDLVRKVAEENGRSVNSEIYQRVMESFKKEGRIGAGGGSGGGSMGSTGGAAARSYPYDVPDYA
notes: In vitro translated; differs from the pIE2 form in that the MCS-encoded region lies between scArc and the HA tag; also called pIE3-derived scArc-HA; scArc-HA

Assays:
[1] = target: T2, protein A (Sigma), biotinylated (UniProt P38507 37-477); assay: protein-DNA complex captured on biotinylated protein in streptavidin-coated PCR tubes; co-captured DNA detected by PCR and gel
T2 construct: Immobilised on streptavidin-coated tubes; also called pA

[2] = target: T3, BSA (Sigma), biotinylated (UniProt P02769 25-607); assay: as above
T3 construct: Negative control surface

[3] = target: T1, human TNF receptor, biotinylated; assay: as above
[4] = target: T4, β-galactosidase (Sigma), biotinylated (Escherichia coli (strain K12), UniProt P00722 2-1024 = β-galactosidase, Biotinylated (sites not given); the native enzyme is a homotetramer, and one chain is given); assay: method not stated
T4 construct: Immobilised on streptavidin-coated tubes or wells
T4 sequence (P00722 2-1024 limits assumed): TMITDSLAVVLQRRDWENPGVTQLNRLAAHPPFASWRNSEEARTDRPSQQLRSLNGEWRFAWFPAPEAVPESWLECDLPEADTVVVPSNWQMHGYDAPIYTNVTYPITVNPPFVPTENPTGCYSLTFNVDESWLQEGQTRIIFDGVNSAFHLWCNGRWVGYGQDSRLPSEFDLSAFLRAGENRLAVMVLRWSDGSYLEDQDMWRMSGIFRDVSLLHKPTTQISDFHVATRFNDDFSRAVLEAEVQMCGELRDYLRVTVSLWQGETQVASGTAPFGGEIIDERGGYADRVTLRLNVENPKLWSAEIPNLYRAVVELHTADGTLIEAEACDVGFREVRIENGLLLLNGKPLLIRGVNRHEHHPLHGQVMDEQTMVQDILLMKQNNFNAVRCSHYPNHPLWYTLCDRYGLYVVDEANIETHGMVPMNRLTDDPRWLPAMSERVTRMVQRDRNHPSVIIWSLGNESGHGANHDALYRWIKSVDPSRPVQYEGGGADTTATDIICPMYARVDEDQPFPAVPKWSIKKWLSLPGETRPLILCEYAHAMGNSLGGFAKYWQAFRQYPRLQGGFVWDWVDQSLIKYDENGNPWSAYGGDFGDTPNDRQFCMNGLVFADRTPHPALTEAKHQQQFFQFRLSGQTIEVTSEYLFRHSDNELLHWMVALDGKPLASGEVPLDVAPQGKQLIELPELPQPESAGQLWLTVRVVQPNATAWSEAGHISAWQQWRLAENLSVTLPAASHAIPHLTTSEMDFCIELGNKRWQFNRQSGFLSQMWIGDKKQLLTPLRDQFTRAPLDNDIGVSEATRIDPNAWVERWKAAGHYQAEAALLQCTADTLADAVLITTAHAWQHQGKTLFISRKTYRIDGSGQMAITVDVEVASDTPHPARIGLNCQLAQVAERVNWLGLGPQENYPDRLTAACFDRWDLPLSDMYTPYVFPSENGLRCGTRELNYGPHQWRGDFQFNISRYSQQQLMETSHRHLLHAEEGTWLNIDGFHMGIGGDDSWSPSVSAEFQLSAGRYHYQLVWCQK

T3 sequence (P02769 25-607 limits assumed): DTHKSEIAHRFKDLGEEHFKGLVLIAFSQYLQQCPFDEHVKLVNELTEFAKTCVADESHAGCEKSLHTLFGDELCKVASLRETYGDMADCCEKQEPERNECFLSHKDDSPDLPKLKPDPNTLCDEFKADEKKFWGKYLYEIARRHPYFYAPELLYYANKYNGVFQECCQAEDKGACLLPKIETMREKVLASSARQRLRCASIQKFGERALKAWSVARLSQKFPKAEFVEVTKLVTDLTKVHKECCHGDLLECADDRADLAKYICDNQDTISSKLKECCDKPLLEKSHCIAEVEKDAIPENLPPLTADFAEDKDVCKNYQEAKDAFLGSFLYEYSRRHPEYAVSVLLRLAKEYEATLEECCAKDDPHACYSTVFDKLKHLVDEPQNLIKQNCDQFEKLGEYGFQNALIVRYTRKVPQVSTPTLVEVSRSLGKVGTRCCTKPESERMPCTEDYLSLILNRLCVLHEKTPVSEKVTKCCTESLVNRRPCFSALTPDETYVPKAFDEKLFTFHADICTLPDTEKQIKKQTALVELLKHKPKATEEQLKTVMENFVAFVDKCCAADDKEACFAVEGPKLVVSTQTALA

Row | Binder | binding result [1] | binding result [2] | binding result [3] | Kd [4]
1 | B1 | no binding | no binding | no binding | –
2 | B2 | no binding | no binding | – | –
3 | B3 | – | – | – | > 1000 nM
4 | B4 | – | no binding | – | –
5 | B5 | – | no binding | – | –
